Data set [1] is described as follows: folding stability dG unfold from trypsin proteolysis; higher = more stable. The gist of the method: (§1)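 Mini-proteins designed to be under 80 residues and free of cysteine were carried in a PA-tagged cDNA display construct and digested with trypsin and with chymotrypsin. Each protease was applied at 11 threefold-diluted concentrations, alongside a no-protease condition, before sequencing. K50 came from Bayesian fitting of the sequencing counts, and unfolding free energy was obtained by comparing it with a sequence-predicted unfolded-state K50 and a shared folded-state K50, for each protease separately or for both together. Designs were retained only if their AlphaFold2 dimer inter-PAE exceeded 15.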

Data set [2] is described as follows: folding stability dG unfold (combined trypsin and chymotrypsin); higher = more stable. The gist of the method:
as §1

The nature of data set [3]: folding stability dG unfold from chymotrypsin proteolysis; higher = more stable. The gist of the method: as §1

The values that follow come from the supplement of paper PMC12764529.

± gives the half width of the 95% confidence interval.

For the sequence “SAGGSAGGGPPGTTTTTISTPDGPVTVTVSPTSVTVTRPGSNETVTSSGSPTTTLEEIAAEIAASAGGSAGG [r6_317_JUSTAS]”, the “folding stability dG unfold” value in data set [1] is 2.88 ± 0.14 kcal/mol; in data set [2], 2.24 ± 0.11 kcal/mol; in data set [3], 1.58 ± 0.052 kcal/mol.
On to “SAGGSAGGGPPSPVQTSTTSFSVSGDSSVTNVTVVTLPDGSLLVETTVFPSSGGSVSSLSSIPASAGGSAGG [r6_670_JUSTAS]”, for which the results for the “folding stability dG unfold” value in data set [1], in data set [2] and in data set [3] were 1.27 ± 0.031 kcal/mol, 0.855 ± 0.058 kcal/mol and 0.218 ± 0.21 kcal/mol, respectively.
In the case of “SAGGSAGGGRYLVLIEFENGFPLAYVFPSPEDVVEHTRLLEERLGYPIKRIEVYKIDPNGKAYASAGGSAGG [r6_162_TrMRF]”, the “folding stability dG unfold” value worked out at 2.41 ± 0.053 kcal/mol in data set [1], 2.53 ± 0.086 kcal/mol in data set [2] and 2.42 ± 0.12 kcal/mol in data set [3].
The like results for “SAGGSAGGGSFTLTEEPGGVLTITTPDKTLTVNLEGVTPDPNSDTTFSFTLSLDPDDSASVTSSSAGGSAGG [r6_202_JUSTAS]” were, in that order, 1.44 ± 0.023 kcal/mol, 1.47 ± 0.1 kcal/mol and 1.43 ± 0.091 kcal/mol.
The like results for “SAGGSAGGGTVLAEEEEPETGLVRRLVRLPDGTLVESVSLVDPETGEVLSEEVLRETPLPPPGLSAGGSAGG [r6_928_JUSTAS]” were, in that order, 0.898 ± 0.08 kcal/mol, 1.29 ± 0.12 kcal/mol and 1.41 ± 0.054 kcal/mol.
With “SAGGSAGGIEITEISRSEELLKLDVPEDTLVLKVKHPDGKEIEVTFPANIPIEEAKEKAKEFVESAGGSAGG [r6_986_TrMRF]”, the “folding stability dG unfold” value in data set [1] is -0.248 ± 0.079 kcal/mol; in data set [2], -0.188 ± 0.18 kcal/mol; in data set [3] it was -0.176 ± 0.15 kcal/mol.
The like results for “SAGGSAGGIKELLEALGFEVVDVEPTDNKFMIMIRNPEEGRVVVIEIEWDGPPKIEIHPMPPNASAGGSAGG [r6_195_TrROS]” were, in that order, 2.38 ± 0.065 kcal/mol, 2.31 ± 0.13 kcal/mol and 2.11 ± 0.04 kcal/mol.
The like results for “SAGGSAGGIYIFFPPEDLEPIAPFTITIEVKRRDPDGDEPQPRKQTIPIRIYRAPNNNLMIEPGSAGGSAGG [r6_278_TrROS]” were, in that order, 0.742 ± 0.11 kcal/mol, 0.881 ± 0.087 kcal/mol and 0.919 ± 0.19 kcal/mol.
The like results for “SAGGSAGGKAEKITLEIPNTGKKVEIIKPENKAIITVYDKNGKPIKTIVVPPNFPGIEDAVKADSAGGSAGG [r6_424_TrMRF]” were, in that order, -0.267 ± 0.068 kcal/mol, 0.434 ± 0.12 kcal/mol and 0.773 ± 0.061 kcal/mol.
With “SAGGSAGGKETKTITMIIKVKDENGKELKAGDKVEIEINGKKITIEVTYNKKTGYLVVKATIKPSAGGSAGG [r6_657_TrROS_Hall]”, the figures for the “folding stability dG unfold” value in data set [1], in data set [2] and in data set [3] were 2.47 ± 0.096 kcal/mol, 3.37 ± 0.17 kcal/mol and 3.87 ± 0.11 kcal/mol, respectively.
The like results for “SAGGSAGGKEVYKIKVKNAEIVDFDEETGELTIKLKETGKEIKIPLKAIKKIEITDDYIYIYVESAGGSAGG [r6_313_TrROS_Hall]” were, in that order, 3.64 ± 0.25 kcal/mol, 4.15 ± 0.17 kcal/mol and 4.21 ± 0.13 kcal/mol.
Turning to “SAGGSAGGKIDLKDLKIVKIETVKNENGETFYRVVIEVDGKKIVLTVPENMSLEELLKKLKELSSAGGSAGG [r6_232_TrROS_Hall]”, the “folding stability dG unfold” value in data set [1] came out at 3.36 ± 0.13 kcal/mol; in data set [2], 4.07 ± 0.081 kcal/mol; in data set [3] it was 4.22 ± 0.055 kcal/mol.
The like results for “SAGGSAGGKIKLDGKEIVIVMSKEEKEKIAKELKEKFPNVKIKVVEGMSEEEAAKKADLVIVFDSAGGSAGG [r6_679_TrROS_Hall]” were, in that order, -0.142 ± 0.18 kcal/mol, -0.269 ± 0.39 kcal/mol and 0.0544 ± 0.23 kcal/mol.
As for “SAGGSAGGKIKPGEKVKVKVKIKNKNGEVFEATATVVDGKIFIEVDGKIYEISADDIEEIEVEPSAGGSAGG [r6_132_TrROS_Hall]”, the “folding stability dG unfold” value in data set [1] was determined as 1.47 ± 0.042 kcal/mol; in data set [2], 2.37 ± 0.22 kcal/mol; in data set [3], 2.92 ± 0.099 kcal/mol.
The like results for “SAGGSAGGKIKVEIEYNGEKKEMTLDEIKALLKKNLPPNATIRVKKNGKTIPLKKVKVKKLKKKSAGGSAGG [r6_936_TrROS_Hall]” were, in that order, 1.08 ± 0.069 kcal/mol, 1.35 ± 0.18 kcal/mol and 1.65 ± 0.15 kcal/mol.
The like results for “SAGGSAGGKIKVEYNPENNMYRVTIKLPGGKIKIYIPPGQTEEQGEKNVKHMAKELLKKNGIKISAGGSAGG [r6_679_TrROS]” were, in that order, -0.0228 ± 0.46 kcal/mol, 1.17 ± 0.44 kcal/mol and 1.47 ± 0.14 kcal/mol.
“SAGGSAGGKIPPNMEIEPWRFGGKPYFLIRMPNGSYQVFEFKGDKLKIKETIPVPPGDWILIKFSAGGSAGG [r6_476_TrROS]”: the figures for the “folding stability dG unfold” value in data set [1], in data set [2] and in data set [3] were 1.48 ± 0.04 kcal/mol, 1.81 ± 0.14 kcal/mol and 1.98 ± 0.16 kcal/mol, respectively.
In the case of “SAGGSAGGKITITLPGAEIVSVEESEDGKTITITVRLENGELLKITLKRVNGKWYITKIELLKPSAGGSAGG [r6_718_TrROS_Hall]”, the figures for the “folding stability dG unfold” value in data set [1], in data set [2] and in data set [3] were 3.54 ± 0.086 kcal/mol, 4.34 ± 0.068 kcal/mol and 4.524 ± 0.038 kcal/mol, respectively.
In the case of “SAGGSAGGKKFKPGQVVLDPKTKELYVIKGEVTVKEDGSLSIKVEKVKLPKPKKLTKEQLEKLKSAGGSAGG [r6_771_TrROS_Hall]”, the “folding stability dG unfold” value turned out to be 0.687 ± 0.067 kcal/mol in data set [1], 0.783 ± 0.16 kcal/mol in data set [2] and 0.613 ± 0.23 kcal/mol in data set [3].
The like results for “SAGGSAGGKKIRIRIPLPDGTWVEVEVYFSEDGIYSFYIPPTGKLVLIDVGENGIKITIIDLPPSAGGSAGG [r6_58_TrMRF]” were, in that order, 4.1 ± 0.32 kcal/mol, 4.38 ± 0.43 kcal/mol and 4.47 ± 0.27 kcal/mol.
As for “SAGGSAGGKKKKKKKKKYYTFVLKVKEKDLTPEEIKKLFPNVKIEKKDGYLVITVKVNGKEIKFSAGGSAGG [r6_738_TrROS_Hall]”, the results for the “folding stability dG unfold” value in data set [1], in data set [2] and in data set [3] were 1.43 ± 0.19 kcal/mol, 2.11 ± 0.31 kcal/mol and 2.66 ± 0.12 kcal/mol, respectively.
The like results for “SAGGSAGGKKKVLILPKGKKKEYTIEEAKKILKEKLPENAKVRLLETGKEYPVKDLLKKLGIDLSAGGSAGG [r6_936_TrMRF]” were, in that order, -0.276 ± 0.28 kcal/mol, -0.207 ± 0.45 kcal/mol and -0.411 ± 0.65 kcal/mol.
The like results for “SAGGSAGGKKKVLLVKVEIELPNGEKLELVAESEEEALEALKKLLEKKGLKIKKVEIVELEEKESAGGSAGG [r6_405_TrROS_Hall]” were, in that order, 1.64 ± 0.071 kcal/mol, 2.17 ± 0.077 kcal/mol and 2.41 ± 0.051 kcal/mol.
The like results for “SAGGSAGGKKTVEIEMTVDELLAALKSLSEEELKNVKIIGKDGKEFTLEDLEKNPGKIYKIEVKSAGGSAGG [r6_428_TrROS_Hall]” were, in that order, 0.694 ± 0.07 kcal/mol, 1.82 ± 0.16 kcal/mol and 2.23 ± 0.074 kcal/mol.
Take “SAGGSAGGKKVYEIKGLTPEQIRALVKENKGKVTIYYKDGKKEEKTIKEGDEIAPGETVYIEVESAGGSAGG [r6_303_TrROS_Hall]”: the figures for the “folding stability dG unfold” value in data set [1], in data set [2] and in data set [3] were 0.858 ± 0.11 kcal/mol, 1.56 ± 0.21 kcal/mol and 1.74 ± 0.13 kcal/mol, respectively.
The like results for “SAGGSAGGKLENLPENVTEVRIEKNENGEYTIYVRNKETNEYVKLKVEKKDGEWKIVEKEVFPKSAGGSAGG [r6_937_TrROS_Hall]” were, in that order, 2.09 ± 0.12 kcal/mol, 2.74 ± 0.26 kcal/mol and 3.02 ± 0.047 kcal/mol.
The like results for “SAGGSAGGKLPKNIEKIEFNKKTNIIKVKVKSLEDLKKLAEKLNFEIVSVEEKDGYIYIKIKKKSAGGSAGG [r6_380_TrROS_Hall]” were, in that order, 1.86 ± 0.038 kcal/mol, 2.47 ± 0.081 kcal/mol and 2.796 ± 0.027 kcal/mol.
As to “SAGGSAGGKLVLKIKIYNKKTKKVYEFEIEADSLEELKEALKKLGLPKDVKIVSVELRPLDEEPSAGGSAGG [r6_23_TrROS_Hall]”, the “folding stability dG unfold” value came out at 3.65 ± 0.1 kcal/mol in data set [1], 4.79 ± 0.092 kcal/mol in data set [2] and 4.96 ± 0.075 kcal/mol in data set [3].
The like results for “SAGGSAGGKNWRTIPFMIWIPPGAPPIEFEIPLPDGWKVEIEISVVRNPDGWYFIMFSITVQPDSAGGSAGG [r6_510_TrROS]” were, in that order, 3.12 ± 0.28 kcal/mol, 3.81 ± 0.22 kcal/mol and 3.85 ± 0.17 kcal/mol.
As for “SAGGSAGGKPKPVLRTFEVRDPATGELYKVELVVLDDGSVRALVTRRDGRKREFTFDAPASLILSAGGSAGG [r6_588_TrMRF]”, the “folding stability dG unfold” value was found to be 1.59 ± 0.019 kcal/mol in data set [1], 1.88 ± 0.047 kcal/mol in data set [2] and 2.08 ± 0.042 kcal/mol in data set [3].
The like results for “SAGGSAGGKRKIEIHIIIPPGMPPEWRKKAIEIAKWFAKTLAQENNREVEIKIEIFVLDGMPPWSAGGSAGG [r6_204_TrROS]” were, in that order, 2.82 ± 0.19 kcal/mol, 3.6 ± 0.33 kcal/mol and 3.71 ± 0.076 kcal/mol.
The like results for “SAGGSAGGKRTVQIQFPMGPQWLDKLRDAFPNVDIEELEYDEGPGWHRIKIKVDSPEKIRDFIKSAGGSAGG [r6_334_TrROS]” were, in that order, 0.63 ± 0.19 kcal/mol, 0.991 ± 0.18 kcal/mol and 1.41 ± 0.079 kcal/mol.
The like results for “SAGGSAGGKTISIPGSIEEIQEKLGGPIDEVEHNKPGSGSYKPKNGKPITIHFDSPEDILDFFKSAGGSAGG [r6_19_TrROS]” were, in that order, 0.318 ± 0.032 kcal/mol, 0.206 ± 0.12 kcal/mol and -0.0753 ± 0.15 kcal/mol.
For the sequence “SAGGSAGGKTIVIDMSIEEIAKKLGLEIVEVKKNKDGSVTITLKNGKKITIKVKSPEDLLKAIKSAGGSAGG [r6_13_TrROS_Hall]”, the “folding stability dG unfold” value in data set [1] was 1.65 ± 0.11 kcal/mol; in data set [2] it was 2.54 ± 0.29 kcal/mol; in data set [3] it was 3.03 ± 0.15 kcal/mol.
The like results for “SAGGSAGGKTYIVKIVVKNKNGEELELTLEVETEEEAKEAAEELAKKLEEAGYEIVKVEIKKLPSAGGSAGG [r6_869_TrROS_Hall]” were, in that order, 3.64 ± 0.27 kcal/mol, 4.02 ± 0.2 kcal/mol and 4.11 ± 0.14 kcal/mol.
The like results for “SAGGSAGGKVKFEIPNAKITSVEYDPNPGLLKVEFELPNGLKLTAIFKIDKDKAILAKIEISPESAGGSAGG [r6_718_TrMRF]” were, in that order, 2.57 ± 0.071 kcal/mol, 3.23 ± 0.081 kcal/mol and 3.51 ± 0.045 kcal/mol.
